Results from patent US20210015870A1 (PROMAB BIOTECHNOLOGIES, published 2021).

What was measured:
[1] = biological target: T1, CD18 protein fused with human Fc protein, expressed in transfected 293 cells (UniProt P05107 23-700, limits assumed); assay: immunostaining of transfected 293 cells
T1 construct: Negative control for immunostaining; also called control CD18 protein; CD18-human Fc protein; not shown: human Fc
From the text: We transfected 293 cells either with BCMA (CD269)-human Fc protein or control CD18 protein fused with human Fc protein and performed immunostaining analysis. […] By IHC, clone 4C8A bound to RPMI8226 cells, myeloma primary tumors and normal human liver, but not to any other normal or other type cancer human tissues, confirming the specificity of BCMA expression. BCMA antibody detected also BCMA in primary multiple myeloma tumors.

[2] = biological target: T2, BCMA peptide (BCMA extracellular domain protein with a C-terminal deletion of 37 residues) (human); assay: ELISA, plate coated with BCMA peptide, HRP anti-mouse IgG and TMB, OD450
T2 construct: also called BCMA shorter peptide; shorter peptide from BCMA extracellular domain
T2 peptide: MLQMAGQCSQNEYFDSL
Experimental: We generated mouse monoclonal anti-human BCMA monoclonal antibody 4C8A using hybridoma. Dilutions of the antibody were incubated in ELISA plates coated with BCMA protein, or BCMA peptide (BCMA extracellular domain protein with a C-terminal deletion of 37 residues), or an irrelevant control CD363 protein. Binding of BCMA mAb 4C8A to the coated protein was detected with HRP-conjugated anti-mouse IgG and TMB substrate. […] The binding of BCMA to BCMA protein was in a dose-dependent manner: decreased with […] in contrast to negative controls (FIG. 4).

[3] = biological target: T3, BCMA protein (recombinant human BCMA) (human, UniProt Q02223 1-54); assay: BLItz biolayer interferometry, anti-mouse IgG biosensor, antibody at 100, 50 and 25 nM
T3 construct: also called BCMA antigen; BCMA recombinant protein
T3 sequence: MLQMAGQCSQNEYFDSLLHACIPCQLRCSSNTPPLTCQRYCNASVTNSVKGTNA
Experimental: The BCMA 4C8A antibody was diluted to 100, 50 and 25 nM and added to the anti-mouse IgG biosensor (ForteBio Corp., Menlo Park, Calif.). After 5 minutes, the biosensor was rinsed free of unbound antibody. Binding was monitored by the BLItz system (ForteBio), and the antibody's dissociation constant was determined with the BLItz software.

T1 sequence (P05107 23-700 limits assumed): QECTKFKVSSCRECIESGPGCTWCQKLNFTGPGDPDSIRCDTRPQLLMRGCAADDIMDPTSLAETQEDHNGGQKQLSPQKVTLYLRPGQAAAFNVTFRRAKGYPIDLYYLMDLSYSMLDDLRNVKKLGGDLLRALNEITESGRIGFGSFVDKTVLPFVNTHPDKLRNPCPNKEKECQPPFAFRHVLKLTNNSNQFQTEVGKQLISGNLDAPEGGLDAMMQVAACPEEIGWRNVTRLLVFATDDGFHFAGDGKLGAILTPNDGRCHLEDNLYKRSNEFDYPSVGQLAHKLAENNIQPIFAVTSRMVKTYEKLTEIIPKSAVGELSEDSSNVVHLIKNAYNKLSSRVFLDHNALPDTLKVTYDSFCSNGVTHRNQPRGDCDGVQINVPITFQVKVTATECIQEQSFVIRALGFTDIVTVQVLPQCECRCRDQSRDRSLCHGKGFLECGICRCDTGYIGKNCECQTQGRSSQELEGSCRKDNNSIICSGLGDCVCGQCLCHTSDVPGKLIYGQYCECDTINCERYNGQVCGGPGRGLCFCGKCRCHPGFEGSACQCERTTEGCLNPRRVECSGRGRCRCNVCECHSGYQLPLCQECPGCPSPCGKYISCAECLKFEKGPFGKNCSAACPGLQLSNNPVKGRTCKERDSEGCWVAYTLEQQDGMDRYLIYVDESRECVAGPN

B1: mouse monoclonal anti-human BCMA antibody clone 4C8A (antibody, mouse IgG1, V domains shown)
VH: VQLQQSGPELVKPGASVKMSCKASGYTFTSYVMHWVKQKPGQGLEWIGYIIPYNDATKYNEKFKGKATLTSDKSSSTAYMELSSLTSEDSAVYYCARYNYDGYFDVWGAGTTVTVSS
VL: DIVMTQSPATLSVTPGDRVSLSCRASQSISDYLHWYQQKSHESPRLLIKYASQSISGIPSRFSGSGSGSDFTLSINSVEPEDVGVYYCQNGHSFPPTFGGGTKLEIK
notes: also called BCMA mAb 4C8A; BCMA 4C8A antibody
- binding result [1]: no binding
- binding result [2]: no binding
- Kd [3]: ~2.8 nM
